Laboratory results as given in the DeepSol protein solubility set.

assay: soluble on expression in E. coli; label from the status in PepcDB or PDB records

| Sequence | soluble on expression in E. coli |
| --- | --- |
| MGSDKIHHHHHHMAHYEVKPSFYNYVFSPYLEPAIKVNPGDTVSLYTDDAFESRITSEDVSPKAAVRNAKFLNPQSGPVYINGAEPGDTLAVHFESIEFTRDWAVSCVMEYFGGLQSNSITKMLQKPLVEEVYIWKSKDKGQTWTNDKIGVTIPANPFCGTLATAPDTEAIQALTPGQFGGNMDCPDICPGHTIYLPVHNPGALFYIGDCHAAQGQGELCGVALEISAKATLKFDVIKNKVTNWPRIESPEKIMSVGSAKPMEDAARIAYADLIDWMVSDYGFKVLDAYELLTMVGGLYVANMVDTTYSLCASIEKKYLKRNS | not soluble |
| MKVELQISETYEEEKLIVQAPQETEKVQKVIEFAENLDQREKIKGKIDDQVYLVEIGKIQRFYIENRKVLAETASQTYSIDLRLYQVLKLLPTNFIQISQSEIINIDSISHLKLTPNGLVEIFLKNESFTYSSRRYLKTIKEKLEL | not soluble |
| MGHHHHHHSHMSSPSRKRTIAESKKKHEEKQMKAQQLREKLREEKTLKLQKLLEREKDVRKWKEELLDQRRRMMEEKLLHAEFKREVQLQAIVKKAQEEEAKVNEIAFINTLEAQNKRHDVLSKLKEYEQRLNELQEERQRRQEEKQARDEAVQERKRALEAERQAR | soluble |
| MSEKLVLSSGKCFLHEVLCRREEKEYRQNRANLRRGADTTTEVYAFPYVYPQLPQEATTQERLVLMRVAALAAEFGNIPAVGSDTPAKSLGRWAYEVSRQRMLDRQQQVAFNPKKLDVVGERLAYLHTQDFEEAVRAVSRLMSIASSLSNVPAFDYIALYSLFSYWGNGISEKSQRVRMRVLQDYYGSFGSLIE | not soluble |
| MIVDSISSSTASTSSSSPTRGTPIRKSLQCAVCGDVALGKHYGVNACNGCKGFFRRSIWKNRTYACRHGGKCLVAKEQRNACRSCRLTRCLDVGMNPRAVQGDTVEDPEWDEEAMPETLSISTQTDALKVKKKSHTSLFTLDIKKEQIIDNLRAIYARTDPEEFWKLTYPGTYDFRYAFHNTKVVSPRTPLTPTAERIATLNDVVADFRRAFVLFVDILKSIDQLRDVQEDDKMKIAKSRFAAFYWWLCSTWSAKAGCNGVCYSNGSYHPASISDMPKSEGKHGVRIDYSGVSQKSLENLVEPLRRMELSDEERIVGAVMVILADPVPNVSTKTEKILAEARDFYLELLGYCIKLPEEQQGIRVSTMVLLLASIMELVHLTTDNIQLSDVLHVIDLGDWSQELRDHRYRRQF | not soluble |
| MSLKGTYVLLLKLEESVALRYGKKASHLEPGYYAYVGSAMGGFFKRIPRYFLGSRKRHWHIDYLLDHAQIAGLIMFSGKRIEEEISNVLSYHFEGIEDFGASDLRVKTNLYHVDPDKLFSLLGGFRENRDIRRAQKHRGKQNQSGEGHHHHHH | soluble |
| MSLKEELLEAIYGTVERLEQKVDELSASPKNTEAESTPVSVSVDTSKLEKAILAMAVKEGEAIDKLVRLREAICIFTDLTKKEASKDEQRSKLLFDTINQVKQELNATSKNVQDKLHAMDNAPLKKVVTHRFEPTSKYVLLFIGGLALSLVISIWGNLAQWREYQAWEVADLKYRALKMVLPSDDPNVRYIEKHFSVCRDEKVIDDVRNCVAAYEDSIRHHHEMVEMATYKDSIANKLLQESNRIIRAMKSSKEGHHHHHH | not soluble |
| MAHHHHHHMDGQSSSPAEPASGSVALLYDYTTANDAPVEVHRAAAGRLACSYRAECLAIENGFGHLMPPCLGTSQSPTRILVATDSLSAIEAFRCPLAMRDRVTEAILIMPLSLVKRGRPVEFIFSPSHCGIPRNEATDEEATISISLPQEGIPIWHVDFLTAVKRLCWKEFQEEAEGAYTARQAFVGVARTPFLISSQK | not soluble |
| MAHHHHHHMSQTATAGPALPPPEEPLTYPITFTKQAEESPQSEPGVAAPAAPSGLHQISIFSALHFLLPVYELAGWLPKTTVQHSRKSGDKSSPVSATAGGSKSTSGTAADVSIDLDAIPHDDVRAALRLLPVFEKFFVEGSKIVAQHTDLYYFIESFTLPTPKGPKVITRSKVEGDYRAVHQPSHAPASLGAAGAMTKTTVTNSTAYFSLLPGHNQFLLYYEDCEKLRHFTYLQLDQLRFAWVAVKELLEESKVFNLSDGSLTGLAKRDLQKNNTASPFCLASSAQAATATERASSHDNGSNGGAVIGRGGGNARLHQGTSGNVITAPSKETTEEKKRIQQMSFLREELEHECQRRWPYTPVSKSCIFSLEEKVEAELPADALEQLGIVGAHNTRNSKNGNRRGPRYYLATVDLPLLNKKGGAARFKAPRWWNNRRDAESAAAEATLLALRSMKS | not soluble |
